Results on four substances are retold here after patent publication US20260022153A1 (AMIDEBIO, LLC, priority 2017, published 2026).

The Kd is a measure of binding affinity in units of concentration.

The target of data set [1] is IGF1 receptor (IGF1R) (Homo sapiens, UniProt P08069). The data set is described as follows: Binding affinity of insulin analogs to the IGF1 receptor (IGF1R). The note with it: in the absence of glucose.
The target in data set [2] is insulin receptor (Homo sapiens, UniProt P06213). The note with it: cited from earlier work.
The conditions of data set [3]: after one year in acidic formulations; cited from earlier work.

Take “SEQ ID NO: 5: single chain insulin analog […] (FVDQHLCGSHLVEALYLVCGERGFFYTPKTYDGKGIVEQCCTSICSLYQLENYCG)”: in data set [1], the Kd was 30.4 nM.

Substance “SEQ ID NO: 7: single chain insulin analog […] (FVGQHLCGSHLVEALYLVCGERGFFYTPKTYDGKGIVEQCCTSICSLYQLENYCG)” came in with a Kd in data set [1] of 26.8 nM.

“Wakayama mutation ValA3Leu: insulin with a valine to leucine substitution at position A3 of Insulin Chain A, a naturally occurring mutation”: the “fold lower affinity for the insulin receptor compared to wildtype insulin” value in data set [2] was 500 fold.

With insulin, the Kd in data set [1] is 5.66 nM. In data set [3], the AsnA21 deamidation is 20-30%.
